# US20220227814A1 (NEVADA RESEARCH AND INNOVATION, published 2022)
# Bridge positions count the residues as written; N and C are the ends. Square brackets hold non-standard residues; d marks the D form. Ends that are not written are not given here. Dap = NC[C@H](N)C(=O)O
# B1: CSP1-E1A-cyc(Dap6E10) (peptide)
# peptide: AMRLS[Dap]FFREFILQRKK
# modifications: lactam 6-10
# B2: CSP1-cyc(Orn6E10) (peptide)
# peptide: EMRLSXFFREFILQRKK
# modifications: Orn (ornithine) at position 6; side chain-to-side chain lactam between Orn6 and Glu10
# B3: CSP1-cyc(Dap6D10) (peptide)
# peptide: EMRLSXFFRDFILQRKK
# modifications: Dap at position 6; side chain-to-side chain lactam between Dap6 and Asp10
# B4: CSP1-cyc(K6D9) (peptide)
# peptide: EMRLSKFFDDFILQRKK
# modifications: lactam 6-9
# B5: CSP1-cyc(Dab6D10) (peptide)
# peptide: EMRLSXFFRDFILQRKK
# modifications: Dab at position 6; side chain-to-side chain lactam between Dab6 and Asp10
# B6: CSP2 (competence stimulating peptide 2) (peptide)
# peptide: EMRISRIILDFLFLRKK
# B7: CSP1-cyc(Orn6D10) (peptide)
# peptide: EMRLSXFFRDFILQRKK
# modifications: Orn (ornithine) at position 6; side chain-to-side chain lactam between Orn6 and Asp10
# B8: CSP1-cyc(K6E10) (peptide)
# peptide: EMRLSKFFREFILQRKK
# modifications: lactam 6-10
# B9: CSP1-cyc(K6D14) (peptide)
# peptide: EMRLSKFFRDFILDRKK
# modifications: lactam 6-14
# B10: CSP1-cyc(Dap6E10) (peptide)
# peptide: EMRLSXFFREFILQRKK
# modifications: Dap at position 6; side chain-to-side chain lactam between Dap6 and Glu10
# B11: CSP1-E1A-cyc(Dab6E10) (peptide)
# peptide: AMRLSXFFREFILQRKK
# modifications: Dab at position 6; side chain-to-side chain lactam between Dab6 and Glu10
# B12: CSP1-cyc(Dab6E10) (peptide)
# peptide: EMRLSXFFREFILQRKK
# modifications: Dab at position 6; side chain-to-side chain lactam between Dab6 and Glu10
# B13: CSP1-E1A-des-K16K17-cyc(Dap6E10) (peptide)
# peptide: AMRLS[Dap]FFREFILQR
# modifications: lactam 6-10
# B14: CSP1-cyc(K10D14) (peptide)
# peptide: EMRLSKFFRKFILDRKK
# modifications: lactam 10-14
# B15: CSP1 (competence stimulating peptide 1) (peptide)
# peptide: EMRLSKFFRDFILQRKK
# B16: CSP1-cyc(K6D10) (peptide)
# peptide: EMRLSKFFRDFILQRKK
# modifications: lactam 6-10
# B17: CSP1 with Arg9 replaced with Asp (linear) (peptide)
# peptide: EMRLSKFFDDFILQRKK
# B18: CSP1-K6A (peptide)
# peptide: EMRLSAFFRDFILQRKK
# B19: CSP2-E1Ad10 (peptide)
# peptide: AMRISRIIL[dD]FLFLRKK
# B20: CSP2-d10 (peptide)
# peptide: EMRISRIIL[dD]FLFLRKK
# B21: CSP1-E1A (peptide)
# peptide: AMRLSKFFRDFILQRKK
# Target: T1, ComD2 receptor (Streptococcus pneumoniae)
# Experiment: cell-based or functional assay
Binder,IC50 (reporter strain),EC50 (reporter strain),EC50/IC50 (kind not distinguishable; reporter strain)
B1,182 nM,–,–
B2,–,> 1000 nM,–
B3,–,> 1000 nM,–
B4,–,528 nM,–
B5,–,> 1000 nM,–
B6,–,50.7 nM,–
B7,–,> 1000 nM,–
B8,–,> 1000 nM,–
B9,–,> 1000 nM,–
B10,–,13.1 nM,–
B11,–,–,> 1000 nM
B12,–,31.4 nM,–
B13,67.2 nM,–,–

# Target: T2, ComD1 receptor (Streptococcus pneumoniae)
# Experiment: cell-based or functional assay
Binder,IC50 (reporter strain),EC50 (reporter strain)
B1,75.8 nM,–
B2,–,422 nM
B14,–,257 nM
B3,–,435 nM
B4,–,> 1000 nM
B5,–,59.5 nM
B6,–,1650 nM
B7,–,193 nM
B8,–,350 nM
B9,–,> 1000 nM
B10,–,14.6 nM
B11,173 nM,–
B15,–,10.3 nM
B16,–,258 nM
B12,–,12.2 nM
B13,7.57 nM,–

# Target: T1, ComD2 receptor
# Experiment: cell-based or functional assay
# Remark: another data set of the same source
Binder,fold inhibition potency compared to CSP2-E1Ad10,fold decrease in fold potency compared to CSP1-cyc(Dab6E10) and CSP1-cyc(Dap6E10),fold potency compared to CSP2,fold inhibition potency compared to CSP1-E1A-cyc(Dap6E10)
B1,3 fold,–,–,–
B7,–,> 30 fold,–,–
B10,–,–,~4 fold,–
B13,–,–,–,3 fold

# Target: T2, ComD1 receptor
# Experiment: cell-based or functional assay
# Remark: another data set of the same source
Binder,maximal induction of comX compared to CSP1,fold potency compared to CSP1-cyc(Orn6D10),fold reduction in potency against CSP1,fold inhibition potency compared to CSP1-E1A-cyc(Dap6E10)
B7,100%,–,–,–
B10,100%,10 fold,–,–
B16,44%,–,–,–
B17,–,–,> 100 fold,–
B12,100%,10 fold,–,–
B13,–,–,–,~10 fold

# Target: T1, ComD2 receptor
# Experiment: cell-based or functional assay
# Remark: another data set of the same source
Binder,IC50 (ComD2 EC50/IC50; β-gal reporter),EC50 (ComD2 EC50/IC50; β-gal reporter),EC50/IC50 (kind not distinguishable; β-gal reporter)
B1,182 nM,–,–
B6,–,50.7 nM,–
B11,–,–,> 1000 nM
B18,–,24 nM,–
B19,56.5 nM,–,–
B20,–,2.86 nM,–
B13,67.2 nM,–,–
B21,–,–,> 10000 nM

# Target: T2, ComD1 receptor
# Experiment: cell-based or functional assay
# Remark: another data set of the same source
Binder,IC50 (ComD1 EC50/IC50; β-gal reporter),EC50 (ComD1 EC50/IC50; β-gal reporter),EC50/IC50 (kind not distinguishable; β-gal reporter)
B1,75.8 nM,–,–
B6,–,1650 nM,–
B11,173 nM,–,–
B15,–,10.3 nM,–
B18,–,51 nM,–
B19,–,–,> 1000 nM
B20,–,513 nM,–
B13,7.57 nM,–,–
B21,85.7 nM,–,–
